This is an account of results in publication PMC12884772, “Macrophagic Sclerostin Loop2‐ApoER2 Interaction Required by Sclerostin for Cardiovascular Protective Action” (Advanced Science, 2025).

The assay addresses His-sclerostin loop2 (Limits are not printed (Table S1 not shown). Loop2 taken by convention as the cystine-knot segment Cys-Cys, mature 84-109 in mouse. The paper's mature numbering (I94..W99, with V97 specific to mouse)). Briefly: BLI; His-sclerostin loop2 loaded on anti-penta-HIS (HIS1K) biosensors, immersed in ApoER2-LA7 at different concentrations. The note with it: both partners purified. A general note: BLI is a label-free optical method that tracks binding on a fibre tip over time.

B1: ApoER2-LA7 (P290-L326) (peptide)
peptide: PCRENEFQCGDGTCVLAIKRCNQERDCPDGSDEAGCL
notes: LDLR type A repeat 7 (LA7) of ApoER2, P290-L326; The form with D-residues at the first and last three positions was used only in vivo and is not this molecule; also called ApoER2-Pep; ApoER2 peptide tool
Take B1: the equilibrium dissociation constant (Kd) worked out at 1900 nM.

A word on the Kd: it is the free concentration of one partner at which half of the binding sites on the other are occupied at equilibrium, for simple one-to-one binding.
